Test [1] has as its system LLC1/hGPC3 syngeneic tumor. Nature of the test: In vivo drug efficacy, human CD3εδγ gene-modified mouse model. Set-up: species or system human CD3εδγ gene-modified mice. Conditions: 5 mg/kg Day 11 and Day 14, compared to solvent group or anti-human GPC3, anti-mouse CTLA-4, PD-1, PD-L1 antibodies at 25 mg/kg. As for the experimental part: Methods called an NOD scid/T cell-injected model, a humanized NOG mouse model, and a human CD3εδγ gene-modified mouse model were used in the in vivo drug efficacy evaluation. Assay using an NOD scid/T cell-injected model was performed as follows. […] T cells expanded by culturing human PBMCs in vitro were injected into the NOD scid mice with confirmed tumor establishment. The mice were treated by administering bispecific antibody-38 and bispecific antibody-30, -31, -32, or -33. Assay using a humanized NOG mouse model was performed as follows. CD34-positive hematopoietic stem cells derived from umbilical cord blood were transplanted into NOG mice by tail vein injection. Human T cells are constantly supplied in the mice, which are called humanized NOG mice. The PC-10 cell line was transplanted into humanized NOG mice. The humanized NOG mice with confirmed establishment of PC-10 tumor were treated by administering antibody-38. Assay using a human CD3εδγ gene-modified mouse model was performed as follows. Cells of mouse-derived cell line forced to express human GPC3 were transplanted into a human CD3εδγ gene-modified mouse model, which had been prepared according to Reference Example 10. The human CD3εδγ gene-modified mice with confirmed tumor establishment were treated by administering antibody-38. […]

The subject of test [2] is cell lines derived from various cancer types (GPC3-expressing target cells). Put plainly: TDCC activity by LDH release test with human PBMCs as effector cells. The class given is cell-based. Conditions: about 24 hours. On the procedure: TDCC activity of each test antibody was measured by the method described below. Human peripheral blood mononuclear cells (hereinafter referred to as human PBMCs) were used as effector cells and TDCC activity of each test antibody was measured as follows.
50 ml of peripheral blood was collected from a healthy person in Chugai Pharmaceutical Co. Ltd. using a syringe pre-loaded with 500 μl of 5000 units/5 ml heparin solution. The peripheral blood diluted two-fold with PBS was divided into four aliquots and added to Leucosep tubes for lymphocyte separation (GE Healthcare) which had been loaded with 15 ml of Ficoll-Paque PLUS and centrifuged in advance. […]
TDCC activity was assessed by an LDH release method (LDH Cytotoxicity Detection Kit, TAKARA). […] The absorbance at 490 to 492 nm was measured with a plate reader. The reference wavelength used was 600 to 620 nm, and the absorbance was subtracted from that at 490 to 492 nm. […]
Cytotoxic activity was determined based on this equation.
Here, A represents the absorbance of a mixture of target cells, effector cells, and antibody; B represents the absorbance of effector cells; C represents the absorbance of target cells; and D represents the absorbance of target cells with Triton X-100 added.

B1: antibody-38: anti-human CD3ε chain and anti-human GPC3 bispecific antibody; H chains SEQ ID NO: 385 and 402, common L chains SEQ ID NO: 410 (antibody)
heavy 1: QVQLVQSGAEVKKPGASVTVSCKASGYTFTDYEMHWIRQPPGEGLEWIGAIDGPTPDTAYSEKFKGRVTLTADKSTSTAYMELSSLTSEDTAVYYCTRFYSYTYWGQGTLVTVSSASTKGPSVFPLAPCSRSTSESTAALGCLVKDYFPEPVTVSWNSGALTSGVHTFPAVLQSSGLYSLSSVVTVPSSSLGTQTYTCNVDHKPSNTKVDKRVESKYGPPCPPCPAPEFRGGPKVFLFPPKPKDTLMISRTPEVTCVVVDVSQEDPEVQFNWYVDGVEVHNAKTKPREEQFASTYRVVSVLTVLHQDWLNGKEYKCKVSNKGLPSSIEKTISKAKGQPREPQVYTLPPSQEEMTKNQVSLTCLVKGFYPSDIAVEWESNGQPENNYKTTPPVLDSDGSFFLYSKLTVDKSRWQEGNVFSCSVMHEALHNHYTQESLSLSP
heavy 2: QVQLVESGGGVVQPGGSLRLSCAASGFTFSNAWMHWVRQAPGKGLEWVAQIKDKSQNYATYVAESVKGRFTISRADSKNSIYLQMNSLKTEDTAVYYCRYVHYAAGYGVDIWGQGTTVTVSSASTKGPSVFPLAPCSRSTSESTAALGCLVKDYFPEPVTVSWNSGALTSGVHTFPAVLQSSGLYSLSSVVTVPSSSLGTKTYTCNVDHKPSNTKVDKRVESKYGPPCPPCPAPEFRGGPKVFLFPPKPKDTLMISRTPEVTCVVVDVSQEDPEVQFNWYVDGVEVHNAKTKPREEQFASTYRVVSVLTVLHQDWLNGKEYKCKVSNKGLPSSIEKTISKAKGQPREPQVYTLPPSQKEMTKNQVSLTCLVKGFYPSDIAVEWESNGQPENNYKTTPPVLDSDGSFFLYSKLTVDKSRWQEGNVFSCSVMHEALHNHYTQKSLSLSP
light: DIVMTQSPLSLPVTPGEPASISCRSSQPLVHSNRNTYLHWYQQKPGQAPRLLIYKVSNRFSGVPDRFSGSGSGTDFTLKISRVEAEDVGVYYCGQGTQVPYTFGQGTKLEIKRTVAAPSVFIFPPSDEQLKSGTASVVCLLNNFYPREAKVQWKVDNALQSGNSQESVTEQDSKDSTYSLSSTLTLSKADYEKHKVYACEVTHQGLSSPVTKSFNRGEC
modifications: An artificially generated sequence
For B1, the anti-tumor effect result in test [1] was “evident anti-tumor effect”. The “TDCC activity (LDH release)” value in test [2] is reported as “clearly observed”.

The values are drawn from patent publication US20250066503A1, “CELL INJURY INDUCING THERAPEUTIC DRUG FOR USE IN CANCER THERAPY” (CHUGAI SEIYAKU KABUSHIKI KAISHA, priority 2016, published 2025).
